The assay has as its target QatB (Escherichia coli NCTC9009). Put plainly: SEC-MALS. Background: SEC sorts molecules by how far they enter the pores of the column.

The term stoichiometry N denotes the number of molecules, sites or subunits per partner or assembly.

On to QatD (enzyme), for which the stoichiometry N stood at 1.
The result for QatC (enzyme) reads 1.

(Values after publication PMC13639016.)
